# Results: US20200317768A1 (published 2020)
# Changes are numbered by the printed parent chain.
# T1: cynomolgus monkey FcγRIIIaS extracellular domain, C-terminal His-tag (cynomolgus monkey, UniProt Q8SPW2 21-206 at identity 1.00))
# T1 construct: also called cyno FcγRIIIaS; cynoFcγRIIIaS
# T1 chain: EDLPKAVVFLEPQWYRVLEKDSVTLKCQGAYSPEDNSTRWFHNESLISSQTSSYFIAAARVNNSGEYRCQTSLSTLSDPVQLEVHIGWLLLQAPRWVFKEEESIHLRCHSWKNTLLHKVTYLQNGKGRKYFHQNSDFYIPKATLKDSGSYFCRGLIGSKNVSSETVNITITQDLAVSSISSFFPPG
# T2: cynomolgus monkey FcγRIIa1 extracellular domain, C-terminal His-tag (cynomolgus monkey)
# T2 construct: also called cyno FcγRIIa1; cynoFcgRIIa1
# T2 chain: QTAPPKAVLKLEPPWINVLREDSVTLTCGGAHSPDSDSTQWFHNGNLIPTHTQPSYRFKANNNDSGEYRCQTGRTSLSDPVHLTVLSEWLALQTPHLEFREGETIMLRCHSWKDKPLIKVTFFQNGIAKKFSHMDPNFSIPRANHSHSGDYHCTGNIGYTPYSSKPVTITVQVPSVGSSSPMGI
# T3: cynomolgus monkey FcγRIIa2 extracellular domain, C-terminal His-tag (cynomolgus monkey)
# T3 construct: also called cyno FcγRIIa2; cynoFcgRIIa2
# T3 chain: T2 chain with P95T, T121A, I127K, A128S, K130N, D135N, R142Q
# T4: cynomolgus monkey FcγRIIa3 extracellular domain, C-terminal His-tag (cynomolgus monkey)
# T4 construct: also called cyno FcγRIIa3; cynoFcgRIIa3
# T4 chain: T2 chain with P95T, T121A, A128S, H133P, D135N
# T5: human FcγRIIaH extracellular domain, C-terminal His-tag (human, UniProt P12318 34-217)
# T5 construct: also called human FcγRIIa (type H); FcgRIIaH
# T5 sequence: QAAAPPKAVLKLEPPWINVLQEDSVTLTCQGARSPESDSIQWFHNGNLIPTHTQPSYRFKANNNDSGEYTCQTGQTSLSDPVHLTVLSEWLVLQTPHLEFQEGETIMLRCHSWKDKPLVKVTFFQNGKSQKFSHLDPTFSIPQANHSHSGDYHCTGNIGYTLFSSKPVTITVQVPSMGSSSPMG
# T6: human FcγRIIaR extracellular domain, C-terminal His-tag (human, UniProt P12318 34-217)
# T6 construct: also called human FcγRIIa (type R); FcgRIIaR
# T6 chain: T5 sequence with H134R
# T7: human FcγRIIb extracellular domain, C-terminal His-tag (human, UniProt P31994 43-217)
# T7 construct: also called human FcgRIIb; FcgRIIb
# T7 sequence: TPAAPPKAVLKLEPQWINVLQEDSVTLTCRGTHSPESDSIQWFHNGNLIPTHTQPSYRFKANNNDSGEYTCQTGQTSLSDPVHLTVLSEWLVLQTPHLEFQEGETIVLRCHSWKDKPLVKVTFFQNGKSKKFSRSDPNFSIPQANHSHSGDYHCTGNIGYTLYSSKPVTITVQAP
# B1: M103205H795-MY101/M103202L889-SK1 (antibody, human IgG1, kappa)
# heavy: QVTLKESGPVLVKPTETLTLTCTVSGIDLSHDDISWVRQAPGKGLEWVGIISYAGSTYYASWAKGRLTISKDTSKNQVVLTMTNMDPVDTATYYCARGVPAYSHGGDLWGQGTLVTVSSASTKGPSVFPLAPSSKSTSGGTAALGCLVKDYFPEPVTVSWNSGALTSGVHTFPAVLQSSGLYSLSSVVTVPSSSLGTQTYICNVNHKPSNTKVDKKVEPKSCDKTHTCPPCPAPELLNGPSVFLFPPKPKDTLMISRTPEVTCVVVDVSEEDPEVKFNWYVDGVEVHNAKTKPREEQYNSTYRVVSVLTVLHQDWLNGKEYKCKVSNKALPKPIEKTISKAKGQPREPQVYTLPPSREEMTKNQVSLTCLVKGFYPSDIAVEWESNGQPENNYKTTPMVLDSDGSFFLYSKLTVDKSRWQQGNVFSCSVMHEALHNHYTQKSLSLSP
# light: DIVMTQSPATLSLSPGERATLSCTSSQSVYHANWLSWFQQKPGQPPKLLIYWASTLAYGVPSRFSGSGSGTDFTLTISSLQPEDAATYYCAGGYGGGRYAFGQGTKVEIKRTVAAPSVFIFPPSDEQLKSGTASVVCLLNNFYPREAKVQWKVDNALQSGNSQESVTEQDSKDSTYSLSSTLTLSKADYEKHKVYACEVTHQGLSSPVTKSFNRGEC
# notes: also called MS1032LO06-MY101
# B2: M103205H795-MY105/M103202L889-SK1 (antibody, human IgG1, kappa)
# heavy: B1 heavy with S241V, K332A
# light: B1 light
# notes: Substitutions introduced into M103205H795-SG1; expressed with M103202L889-SK1 as light chain
# B3: M103205H795-MY197/M103202L889-SK1 (antibody, human IgG1, kappa)
# heavy: B1 heavy with E270D
# light: B1 light
# notes: as for B2
# B4: M103205H795-MY141/M103202L889-SK1 (antibody, human IgG1, kappa)
# heavy: B1 heavy with S269A, E270H, K332A
# light: B1 light
# notes: as for B2
# B5: M103205H795-MY115/M103202L889-SK1 (antibody, human IgG1, kappa)
# heavy: B1 heavy with S269A, K332A
# light: B1 light
# notes: as for B2
# B6: M103205H795-MY117/M103202L889-SK1 (antibody, human IgG1, kappa)
# heavy: B1 heavy with L236W, S269A, K332A
# light: B1 light
# notes: as for B2
# B7: M103205H795-MY147/M103202L889-SK1 (antibody, human IgG1, kappa)
# heavy: B1 heavy with L237W, K332A
# light: B1 light
# notes: as for B2
# Target: T1, cynomolgus monkey FcγRIIIaS …
# Assay: SPR (Biacore); KD of SG1 / KD of variant;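 also: relative to parent M103205H795-SG1 carrying the SG1 human heavy chain constant region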
row,KD fold (SG1 = 1) [fold],Binder
1,0.11,B1
2,0.28,B2
3,0.17,B3
4,0.08,B4
5,0.42,B5
6,0.36,B6
7,0.07,B7

# Target: T8, human FcγRIIIaV extracellular domain, C-terminal His-tag (human, UniProt P08637 17-208)
# T8 construct: also called human FcgRIIIaV; FcgRIIIaV
# Assay: SPR (Biacore); KD of SG1 / KD of variant;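 also: relative to parent M103205H795-SG1 carrying the SG1 human heavy chain constant region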
# T8 sequence (P08637 17-208 F176V): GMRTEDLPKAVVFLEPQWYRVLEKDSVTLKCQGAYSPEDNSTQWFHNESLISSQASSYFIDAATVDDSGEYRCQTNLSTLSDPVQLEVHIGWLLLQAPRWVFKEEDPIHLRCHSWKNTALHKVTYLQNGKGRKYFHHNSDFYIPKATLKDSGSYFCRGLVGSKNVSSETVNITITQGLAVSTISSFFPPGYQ
row,KD fold (SG1 = 1) [fold],Binder
1,0.07,B1
2,0.14,B2
3,0.08,B3
4,0.07,B4
5,0.22,B5
6,0.1,B6
7,0.07,B7

# Target: T2, cynomolgus monkey FcγRIIa1 …
# Assay: SPR (Biacore), antibody captured, FcgR analyte
row,Kd [nM],Binder
1,1100,B1
2,12000,B2
3,580,B3
4,22000,B4
5,2300,B5
6,2600,B6
7,2200,B7

# Target: T3, cynomolgus monkey FcγRIIa2 …
# Assay: SPR (Biacore), antibody captured, FcgR analyte
row,Kd [nM],Binder
1,1200,B1
2,900,B2
3,560,B3
4,2800,B4
5,2700,B5
6,3200,B6
7,2200,B7

# Target: T4, cynomolgus monkey FcγRIIa3 …
# Assay: SPR (Biacore), antibody captured, FcgR analyte
row,Kd [µM],Binder
1,36,B1
2,13,B2
3,14,B3
4,20,B4
5,76,B5
6,9.9,B6
7,6.6,B7

# Target: T1, cynomolgus monkey FcγRIIIaS …
# Assay: SPR (Biacore), antibody captured, FcgR analyte
row,Kd [µM],Binder
1,32,B1
2,13,B2
3,2.1,B3
4,47,B4
5,0.85,B5
6,1,B6
7,5.5,B7

# Target: T5, human FcγRIIaH extracellular domain, …
# Assay: SPR (Biacore), antibody captured, FcgR analyte
row,Kd [nM],Binder
1,480,B1
2,15000,B2
3,360,B3
4,12000,B4
5,960,B5
6,2200,B6
7,1200,B7

# Target: T6, human FcγRIIaR extracellular domain, …
# Assay: SPR (Biacore), antibody captured, FcgR analyte
row,Kd [nM],Binder
1,870,B1
2,1400,B2
3,710,B3
4,1600,B4
5,640,B5
6,10000,B6
7,1100,B7

# Target: T7, human FcγRIIb extracellular domain, …
# Assay: SPR (Biacore), antibody captured, FcgR analyte
row,Kd [nM],Binder
1,490,B1
2,570,B2
3,890,B3
4,1100,B4
5,820,B5
6,600,B6
7,850,B7

# Target: T8, human FcγRIIIaV extracellular domain, …
# Assay: SPR (Biacore), antibody captured, FcgR analyte
row,Kd [µM],Binder
1,11,B1
2,5.9,B2
3,10,B3
4,12,B4
5,8.6,B5
6,7.3,B6
7,11,B7
